Results taken from PMC3866869.
Values belong to the substance of their own block, whether it stands above or below them.

What was measured:
Assay in all cases: crystal structure; hanging drop; protein in 25 mM HEPES pH 7.5, 150 mM NaCl, 5% glycerol with 5 mM glutamate or 1 mM KA, mixed 1:1 with reservoir (19-27% PEG 4000, 0-9% propan-2-ol, 80 mM sodium acetate); data collected at 100 K; LBD dimer, one (I222) or two (P212121) dimers in the asymmetric unit
[1] = target: GluK2 K531A ligand-binding domain (rat) (UniProt P42260)
[2] = target: GluK2 K531A-T779G ligand-binding domain (rat) (UniProt P42260)
[3] = target: GluK2 R775A ligand-binding domain (rat) (UniProt P42260)

stoichiometry N [1]: 2
Substance: GluK2 K531A ligand-binding domain (from UniProt P42260 32-544; P42260 667-908) (domain or fragment)

stoichiometry N [2]: 2
Substance: GluK2 K531A-T779G ligand-binding domain (from UniProt P42260 32-544; P42260 667-908) (domain or fragment)

stoichiometry N [3]: 2
Substance: GluK2 R775A ligand-binding domain (from UniProt P42260 32-544; P42260 667-908) (domain or fragment)
